In patent US20150353645A1 one finds ELISA signal (unit not given) data, which are given here for two molecules.

In test [1] the target is MUC1 peptide-biotin (cat#353951, American Peptide Company). Description: ELISA at 2 ug/ml mAb (IgM), MUC1 peptide-biotin on NeutrAvidin; PBS background 0.12. A general note: An ELISA detects its analyte on a solid surface through an enzyme-linked reagent.
Test [2] has the same target. The test is described as follows: ELISA at 2 ug/ml mAb, MUC1 peptide-biotin on NeutrAvidin; PBS background 0.08.

B1: human anti-GD2 monoclonal antibody 2E12 (antibody, human IgM, V domains shown)
VH: QVQLLESGAEVKKPGASVKVSCKASGYTFTSYAMHWVRQAPGQRLEWMGWINAGNGNTIYSQKFQARVTITRDTSASTAYMELSSLRSEDTAVYYCARWVGGVASYFDYWGQGTLVTVSS
VL: EIVLTQSPLSLSVTPGEPASISCRSSQSLLHRNGYNYFDWYLQQPGQSPQLLIYLGSNRASGVPDRFSGSGSGTDFTLKISRVEAEDVGVYYCMQALQTPYTFGQGTKLEIK
The molecule B1 gave an ELISA signal (unit not given) in test [1] of 0.09.

B2: human anti-GD2 monoclonal antibody 31F9 (antibody, human IgG1, V domains shown)
VH: QVQLLESGAEVKKPGASVKVSCEASGYTFTSSDINWVRQATGQGLEWMGWMNPNSGNTGYAQKFQGRVTMTRNTSISTAYMELSSLRSEDTAVYYCARERPRRRGGGFDIWGQGTMVTVSS
VL: DIRMTQSPSSLSASVGDRVTITCRASQGISNYLAWYQQKPGKVPKFLIYAASTLQSGVPSRFSGSGSGTDFTLTISSLQPEDVATYYCQKYNSAPWTFGQGTKVEIK
Take B2: the ELISA signal (unit not given) in test [2] is 0.08.
